Source: patent publication US20130196373
Where two headings read alike, the source gives them in different places.

Experiments:
[1] = test system: TALE TR_CAGA KD-HI-FN-HI (Xanthomonas (engineered)?); conditions: ELISA; site composed
[2] = test system: TALE TR_CAGA AD-HI-GN-HI (Xanthomonas (engineered)?); conditions: ELISA; site composed
[3] = test system: TALE TR_CAGA ND-HI-HN-KI (Xanthomonas (engineered)?); conditions: ELISA; site composed
[4] = test system: TALE TL_TCAT AA-KD-KI-MG (Xanthomonas (engineered)?); conditions: ELISA
[5] = test system: TALE TL_TCAT QG-KD-KI-AA (Xanthomonas (engineered)?); conditions: ELISA
[6] = test system: TALE TL_TCAT canonical (Xanthomonas (engineered)?); conditions: ELISA, AFU 204
[7] = test system: TALE TL_TCAT QG-AD-HI-KG (Xanthomonas (engineered)?); conditions: ELISA
[8] = test system: TALEN 101664 (R551-C17-KKR) (Xanthomonas (engineered)?); test: cell_activity; conditions: paired with 101662, 12 bp gap, K562
[9] = test system: TALE 101048-BfiI (Xanthomonas/Bacillus (engineered)?); test: cell_activity; conditions: paired with 101043-BfiI, K562
[10] = test system: TALE 101042-BfiI (Xanthomonas/Bacillus (engineered)?); test: cell_activity; conditions: paired with 101047-BfiI, K562
[11] = test system: TALE TR_ATTG CI-KG-QG-HN (Xanthomonas (engineered)?); conditions: ELISA; site composed
[12] = test system: TALE TR_ATTG HI-RG-MG-HN (Xanthomonas (engineered)?); conditions: ELISA; site composed
[13] = test system: TALE TR_ATTG CI-MG-KG-HN (Xanthomonas (engineered)?); conditions: ELISA; site composed
[14] = test system: CXA TALE SNI (pos 11-13) (Xanthomonas (engineered)?)
[15] = test system: CXA TALE SAK (Xanthomonas (engineered)?)
[16] = test system: CXA TALE KAK S11K (repeat 5) (Xanthomonas (engineered)?)
[17] = test system: CXA TALE SHD (Xanthomonas (engineered)?)
[18] = test system: CXA TALE SNN (Xanthomonas (engineered)?)
[19] = test system: CXA TALE SNG (Xanthomonas (engineered)?)
[20] = test system: TALEN Condition 2 lane 45 (Xanthomonas (engineered)?); test: cell_activity; conditions: paired with 101047
[21] = test system: TALEN 102204 (L*) (Xanthomonas (engineered)?); test: cell_activity; conditions: paired with 102109, K562
[22] = test system: TALEN 1-1 (Xanthomonas (engineered)?); test: cell_activity; conditions: paired with 101047
[23] = test system: TALEN Condition 1 lane 40 (Xanthomonas (engineered)?); test: cell_activity; conditions: paired with 101047
[24] = test system: TALEN 102297 (L538NC-C17-ELD) (Xanthomonas (engineered)?); test: cell_activity; conditions: paired with 101664, 12 bp gap, K562
[25] = test system: TALEN 101041 (L) (Xanthomonas (engineered)?); test: cell_activity; conditions: paired with 101047, K562
[26] = test system: TALEN 2-1 (Xanthomonas (engineered)?); test: cell_activity; conditions: paired with 101047
[27] = test system: TALEN 101662 (L538-C17-ELD) (Xanthomonas (engineered)?); test: cell_activity; conditions: paired with 101664, 12 bp gap, K562
[28] = test system: TALEN 101238b (Xanthomonas (engineered)?); test: cell_activity; conditions: paired with 101236, K562; SELEX preference improved
[29] = test system: TALEN 101238 (Xanthomonas (engineered)?); test: cell_activity; conditions: paired with 101236, K562
[30] = test system: TALEN 101238c (Xanthomonas (engineered)?); test: cell_activity; conditions: paired with 101236, K562; SELEX preference improved
[31] = test system: TALEN 101238d (Xanthomonas (engineered)?); test: cell_activity; conditions: paired with 101236, K562
[32] = test system: TALEN 101238a (Xanthomonas (engineered)?); test: cell_activity; conditions: paired with 101236, K562; SELEX preference improved
[33] = test system: TALEN 101238e (Xanthomonas (engineered)?); test: cell_activity; conditions: paired with 101236, K562; SELEX not interpretable
[34] = test system: CXA TALE SRI (Xanthomonas (engineered)?)
[35] = test system: CXA TALE NRD S11N (repeat 5) (Xanthomonas (engineered)?)
[36] = test system: CXA TALE SRD (Xanthomonas (engineered)?)
[37] = test system: CXA TALE SKD (Xanthomonas (engineered)?)
[38] = test system: CXA TALE KRI S11K (repeat 5) (Xanthomonas (engineered)?)
[39] = test system: CXA TALE KKD S11K (repeat 5) (Xanthomonas (engineered)?)
[40] = test system: CXA TALE KRD S11K (repeat 5) (Xanthomonas (engineered)?)
[41] = test system: TALE TR_CCTG RD-ND-AA-HN (Xanthomonas (engineered)?); conditions: ELISA; site composed
[42] = test system: TALE TR_CCTG canonical (Xanthomonas (engineered)?); conditions: ELISA, AFU 1020; site composed
[43] = test system: TALE TR_CCTG ND-KD-HG-HN (Xanthomonas (engineered)?); conditions: ELISA; site composed
[44] = test system: TALE TR_CCTG AD-RD-HG-HN (Xanthomonas (engineered)?); conditions: ELISA; site composed
[45] = test system: TALEN 3-1 (Xanthomonas (engineered)?); test: cell_activity; conditions: paired with 101041
[46] = test system: TALE 101047-BfiI (Xanthomonas/Bacillus (engineered)?); test: cell_activity; conditions: paired with 101043-BfiI, K562
[47] = test system: TALEN 101047 (R) (Xanthomonas (engineered)?); test: cell_activity; conditions: paired with 101041, K562
[48] = test system: TALEN 102109 (R*) (Xanthomonas (engineered)?); test: cell_activity; conditions: paired with 102204, K562
[49] = test system: TALEN Condition 3 lane 8 (Xanthomonas (engineered)?); test: cell_activity; conditions: paired with 101041
[50] = test system: TALEN 4-1 (Xanthomonas (engineered)?); test: cell_activity; conditions: paired with 101041
[51] = test system: TALEN Condition 4 lane 64 (Xanthomonas (engineered)?); test: cell_activity; conditions: paired with 101041
[52] = test system: TALE TR_TACA canonical (Xanthomonas (engineered)?); conditions: ELISA, AFU 779; site composed
[53] = test system: TALE TR_TACA VA-CI-ND-HI (Xanthomonas (engineered)?); conditions: ELISA; full site composed from anchor + subsite
[54] = test system: TALE TR_TACA KG-KI-KD-CI (Xanthomonas (engineered)?); conditions: ELISA; site composed
[55] = test system: TALE TR_TACA RG-HI-RD-KI (Xanthomonas (engineered)?); conditions: ELISA; full site composed from anchor + subsite
[56] = test system: TALE 101043-BfiI (Xanthomonas/Bacillus (engineered)?); test: cell_activity; conditions: paired with 101047-BfiI, K562
[57] = test system: TALE TL_CTTC RD-RG-KG-AD (Xanthomonas (engineered)?); conditions: ELISA; site composed
[58] = test system: TALE TL_CTTC RD-RG-MG-ND (Xanthomonas (engineered)?); conditions: ELISA; site composed
[59] = test system: TALE TL_CTTC RD-RG-RG-KD (Xanthomonas (engineered)?); conditions: ELISA; site composed
[60] = test system: TALE TR_CAGC RD-HI-HN-ND (Xanthomonas (engineered)?); conditions: ELISA
[61] = test system: TALE TR_CAGC RD-HI-GN-ND (Xanthomonas (engineered)?); conditions: ELISA
[62] = test system: TALE TR_CAGC ND-KI-FN-AD (Xanthomonas (engineered)?); conditions: ELISA
[63] = test system: TALE TR_CAGC canonical (Xanthomonas (engineered)?); conditions: ELISA, AFU 649
[64] = test system: TALE TR_ATAC HI-VA-CI-ND (Xanthomonas (engineered)?); conditions: ELISA; site composed
[65] = test system: TALE TR_ATAC KI-MG-HI-RD (Xanthomonas (engineered)?); conditions: ELISA; site composed
[66] = test system: TALE TR_ATAC CI-VA-HI-ND (Xanthomonas (engineered)?); conditions: ELISA; site composed
[67] = test system: CXA TALE NRI S11N (repeat 5) (Xanthomonas (engineered)?)

In the case of “TTGACCAGAT (double strand) [TR CAGA target]”, the binding signal (fold vs canonical) [1] is reported as 1.3, the binding signal (fold vs canonical) [2] is reported as 0.04 and the binding signal (fold vs canonical) [3] is reported as 1.28.
Work on “TTCATATCCT (double strand) [TL TCAT target]” yielded a binding signal (fold vs canonical) [4] of 0.05, a binding signal (fold vs canonical) [5] of 2.34 and a binding signal (fold vs canonical) [6] of 1. For the same substance, the binding signal (fold vs canonical) [7] was 2.26.
Work on “TGATACTGACTGT (double strand) [CCR5 R551 half-site]” yielded an activity [8] of 59 % NHEJ.
For “TTCTTCCAGAATTGAT (double strand) [101048 half-site]”, the activity [9] was 0.27 % indels.
“TACACCTGCAGCTCT (double strand) [101042 half-site]” gave an activity [10] of 0.11 % indels.
“TTGACATTGT (double strand) [TR ATTG target]” was tested, and the binding signal (fold vs canonical) [11] was 1.12, the binding signal (fold vs canonical) [12] was 0 and the binding signal (fold vs canonical) [13] was 1.22.
“TTGACGATCCT (double strand) [CGA target]” was tested, and the binding signal (normalized ELISA) [14] was 0.01, the binding signal (normalized ELISA) [15] was 0.21 and the binding signal (normalized ELISA) [16] was 0.28. For the same substance, the binding signal (normalized ELISA) [17] was 0.01, the binding signal (normalized ELISA) [18] was 0.76 and the binding signal (normalized ELISA) [19] was 0.11.
In the case of “TTCATTACACCTGCAGCT (double strand) [CCR5 L538 half-site]”, the activity [20] is reported as 0 % NHEJ, the activity [21] is reported as 65.2 % indels and the activity [22] is reported as 36.6 % NHEJ. The activity [23] was 0 % NHEJ, the activity [24] was 56.2 % NHEJ and the activity [25] was 50.6 % indels. It also gave an activity [26] of 64.1 % NHEJ and an activity [27] of 59 % NHEJ.
PITX3 target of 101238 gave an activity [28] of 50 % indels, an activity [29] of 34 % indels and an activity [30] of 44 % indels. It also gave an activity [31] of 43 % indels, an activity [32] of 54 % indels and an activity [33] of 22 % indels.
“TTGACCATCCT (double strand) [CCA target]” showed a binding signal (normalized ELISA) [14] of 0.06, a binding signal (normalized ELISA) [34] of 0.04 and a binding signal (normalized ELISA) [35] of 0.53. It also gave a binding signal (normalized ELISA) [17] of 1.29, a binding signal (normalized ELISA) [36] of 0.91 and a binding signal (normalized ELISA) [37] of 0.5. It also gave a binding signal (normalized ELISA) [18] of 0.01, a binding signal (normalized ELISA) [38] of 0.28 and a binding signal (normalized ELISA) [39] of 0.64. It also gave a binding signal (normalized ELISA) [40] of 0.85 and a binding signal (normalized ELISA) [19] of 0.15.
“TTGACCCTGT (double strand) [TR CCTG target]” showed a binding signal (fold vs canonical) [41] of 0.02, a binding signal (fold vs canonical) [42] of 1 and a binding signal (fold vs canonical) [43] of 1.07. For the same substance, the binding signal (fold vs canonical) [44] was 1.3.
For “TCTTCCAGAATTGATACT (double strand) [CCR5 R557 half-site]”, the activity [45] was 56.3 % NHEJ, the activity [46] was 0.75 % indels and the activity [47] was 50.6 % indels. The activity [48] was 65.2 % indels, the activity [49] was 0 % NHEJ and the activity [50] was 59.5 % NHEJ. For the same substance, the activity [51] was 0 % NHEJ.
In the case of “TTGACTACAT (double strand) [TR TACA target]”, the binding signal (fold vs canonical) [52] is reported as 1, the binding signal (fold vs canonical) [53] is reported as 1.57 and the binding signal (fold vs canonical) [54] is reported as 0.48. It also gave a binding signal (fold vs canonical) [55] of 1.62.
In the case of “TACACCTGCAGCTCTCAT (double strand) [101043 half-site]”, the activity [56] is reported as 0.75 % indels.
“TCTTCATCCT (double strand) [TL CTTC target]” gave a binding signal (fold vs canonical) [57] of 8.22, a binding signal (fold vs canonical) [58] of 0.16 and a binding signal (fold vs canonical) [59] of 13.8.
“TTGACCAGCT (double strand) [TR CAGC target]” showed a binding signal (fold vs canonical) [60] of 1.52, a binding signal (fold vs canonical) [61] of 0.4 and a binding signal (fold vs canonical) [62] of 0. The binding signal (fold vs canonical) [63] was 1.
“TTGACTATCCT (double strand) [CTA target]” gave a binding signal (normalized ELISA) [14] of 0.02, a binding signal (normalized ELISA) [17] of 0.12 and a binding signal (normalized ELISA) [18] of 0.03. For the same substance, the binding signal (normalized ELISA) [19] was 0.99.
For “TTGACATACT (double strand) [TR ATAC target]”, the binding signal (fold vs canonical) [64] was 1.36, the binding signal (fold vs canonical) [65] was 0.47 and the binding signal (fold vs canonical) [66] was 1.4.
For “TTGACAATCCT (double strand) [CAA target]”, the binding signal (normalized ELISA) ([14]; flanking RVDs inferred from anchors) was 0.96, the binding signal (normalized ELISA) [34] was 0.51 and the binding signal (normalized ELISA) [15] was 0.01. It also gave a binding signal (normalized ELISA) [35] of 0.07, a binding signal (normalized ELISA) [16] of 0.05 and a binding signal (normalized ELISA) [17] of 0.38. For the same substance, the binding signal (normalized ELISA) [36] was 0.26, the binding signal (normalized ELISA) [37] was 0.14 and the binding signal (normalized ELISA) [18] was 1.12. It also gave a binding signal (normalized ELISA) [38] of 0.74, a binding signal (normalized ELISA) [39] of 0.25 and a binding signal (normalized ELISA) [40] of 0.48. For the same substance, the binding signal (normalized ELISA) [19] was 0.63 and the binding signal (normalized ELISA) [67] was 0.
